Measurements as given in PMC8473235.

Each sequence was assayed on GST-VPg (Tulane virus) (Tulane virus) (assay: ELASA).
For “AGTATACGTATTACCTGCAGCAAGGCTTTTTTAAAGGCTAGGCTTGATAATCGGTTAACTCCGATATCTCGGAGATCTTGC [N4-2]”, the binding signal (positive:negative absorbance ratio) was greater than 10. “AGTATACGTATTACCTGCAGCCGGGTCTCGTCTATGCAGTACTCAAAACGCTTGAGGTACCGACGATATCTCGGAGATCTTGC [N1-2]” was tested, and the binding signal (positive:negative absorbance ratio) was greater than 10. “AGTATACGTATTACCTGCAGCTGTCGTTAATTATTCGTGATCTGACAACCCGATCACTCTCCGATATCTCGGAGATCTTGC [T10-2]” gave a binding signal (positive:negative absorbance ratio) greater than 10. For “AGTATACGTATTACCTGCAGCAGTGGGTGGTGATGAATTCTGGTCGCGCTGACAACCCGCGCGATATCTCGGAGATCTTGC [N14]”, the binding signal (positive:negative absorbance ratio) was greater than 10. “AGTATACGTATTACCTGCAGCTCACACTCGTTTCTATTACTAAAACATCGTTCCTTTCAGCCGATATCTCGGAGATCTTGC [T5 (= N12-2)]” gave a binding signal (positive:negative absorbance ratio) greater than 10. “AGTATACGTATTACCTGCAGCTAGTAACGATTACCAAAATTCTCCCGAGGCTGACAACCCGCGATATCTCGGAGATCTTGC [T1-2]” was tested, and the binding signal (positive:negative absorbance ratio) was greater than 10. In the case of “AGTATACGTATTACCTGCAGCTGTCGATAAAGTGAGTTAAGTCACCGGCCCGGCCTATTCGCGATATCTCGGAGATCTTGC [N11-2]”, the binding signal (positive:negative absorbance ratio) is reported as greater than 10. With “AGTATACGTATTACCTGCAGCTGGAAGGCGGGAAGATTTTTGGTCGACCTGACAACCCGGTCGATATCTCGGAGATCTTGC [T9]” the binding signal (positive:negative absorbance ratio) was greater than 10. “AGTATACGTATTACCTGCAGCAGGGATGTGTTGGATGCATGCCAGGCTTGGTAACATTGTACGATATCTCGGAGATCTTGC [N3]” was tested, and the binding signal (positive:negative absorbance ratio) was greater than 10. For “AGTATACGTATTACCTGCAGCTCTTCGGTTTAATAAAGTTGGCTAGGAAAGTTTAAAACCGCGATATCTCGGAGATCTTGC [N13]”, the binding signal (positive:negative absorbance ratio) was greater than 5. “AGTATACGTATTACCTGCAGCCAGAGTTGATGTAAGCTTCGTGTTAGCTCAACTCTTATCGCGATATCTCGGAGATCTTGC [N6]” gave a binding signal (positive:negative absorbance ratio) greater than 10. With “AGTATACGTATTACCTGCAGCTCGAGGTATGGCCTTGTCTAGGCGCACCTGACAACCCGGTGCGATATCTCGGAGATCTTGC [T9-2]” the binding signal (positive:negative absorbance ratio) was greater than 10.
